Assay results: the supplement of paper PMC9170038

Legend:
Conditions in all cases: FMN input: 0 or 200 uM; Eterna round: R93 (includes R88 designs)
MS2 coat protein [1] = assay: apparent KD of MS2 coat protein, switch ON state; designed switch direction (-1 OFF switch, 1 ON switch): 1; higher = weaker reporter binding
How it was run: (§1)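 Apparent KD is reported per design as the median of normalised binding-curve fits across its clusters. The RNA switches were made by on-chip transcription from Illumina sequencing clusters. SNAP-549-labelled MS2 coat protein was then added in twofold steps (0.7 or 1.5 nM to 3 µM; 0.8–1.5 h to 10–20 min per step) in 100 mM Tris-HCl pH 7.5, 80 mM KCl, 4 mM MgCl2, without or with constant ligand.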

MS2 coat protein [2] = assay: apparent KD of MS2 coat protein, switch OFF state (with FMN for OFF switches, without FMN for ON switches); designed switch direction (-1 OFF switch, 1 ON switch): 1; higher = weaker reporter binding
How it was run: as §1

MS2 coat protein [3] = assay: apparent KD of MS2 coat protein, switch ON state; designed switch direction (-1 OFF switch, 1 ON switch): -1; higher = weaker reporter binding
How it was run: as §1

MS2 coat protein [4] = assay: apparent KD of MS2 coat protein, switch OFF state (with FMN for OFF switches, without FMN for ON switches); designed switch direction (-1 OFF switch, 1 ON switch): -1; higher = weaker reporter binding
How it was run: as §1

Row | Sequence | apparent KD of MS2 coat protein (MS2 coat protein [1]) [nM] | apparent KD of MS2 coat protein (MS2 coat protein [2]) [nM] | apparent KD of MS2 coat protein (MS2 coat protein [3]) [nM] | apparent KD of MS2 coat protein (MS2 coat protein [4]) [nM]
1 | AUAAAAGAAGCGAAGGAUAUCCAACUCAAAACAUGAGGAUCACCCAUGUAAAGAAAUAAAAAAUGGGAGAAGGUCGCAAAGAAUA [73%, More Fisker Same State 2, D3, 14] | 582 | 40.1 | – | –
2 | AAAAAAUAAAAAAAGGAUAUAAAUCCUAGAACAUGAGGAUCACCCAUGUACUAGGAAAAAAUAAAAAAGAAGGAAAAAUAAAAAA [SS2: MS2 19] | 18.1 | 17.3 | – | –
3 | GAAAAACAUGAGGAUCACCCAUGUGAGAAUAUGGGAGGAUAUACGAGGACGAGAGUCAAGGUAGAAGGCCUAAAAG [Garnet 75] | 40.5 | 549 | – | –
4 | GAGGACCUAGGAUAGGAUAUGUGAAUAAUUACAUGAGGAUCACCCAUGUCCAUUUAUAUGGGAACAUAGAAGGGUUUUGGUUAUC [SameState2 Malc#39] | 232 | 180 | – | –
5 | AAAUAAAUGACUGAGGAUAUGUCGAAGAAAACAUGAGGAUCACCCAUGUGAUAAUAAAAAGGGUGAUAGAAGGUAGUCAACAAAC [Mod 10 of Pariah 4 by Hyphema in Round 1] | 323 | 262 | – | –
6 | AAAAGACAUGAGGAUCACCCAUGUAAAAACGUAGGAGGAUAUGUCGUGAAAAAAGACUUGACAGAAGGCCUGUGUC [SS1 - 35] | 25.9 | 39 | – | –
7 | GAAAAACAUGAGGAUCACCCAUGUGUAAACACGGGAGGAUAUACGAAGACGUAAGUCAAAGUAGAAGGCCUAAAAG [Garnet 40] | 18.9 | 60.3 | – | –
8 | GGAAGGAAGAGAGAGGAUAUCCAAAGGAAAACAUGAGGAUCACCCAUGUAAAAGGUAGGAAAUUGGGAGAAGGCUCAAAAGAGAG [salish99-ss2-036] | 18.6 | 14 | – | –
9 | AACAGUACAGGAUAUACAUGAGGAUCACCCAUGUGAGACUUAAGUGGCGUACCACAAAGUAGAAGGGUACUGGA [JL Maslow Revisted mod 8] | – | – | 84.1 | 386
10 | AAAAAGUGAGGAUAUACGCGAACAAAAAAAAAAAAGAAAGCGUAGAAGGCACAUGAGGAUCACCCAUGUCCAAA [Alfred 64% 4] | – | – | 28 | 39
11 | AGCAAGUCAGGAUAUACGAAUAAGACAAAAGACGUGAAGGGACAUGAGGAUCACCCAUGUAGAAGGGACAAGCA [LROPPY Exclusion 2 - v01_mod Fisker] | – | – | 80.9 | 60.5
12 | UGGGAGUCAGGAUAUACGAACAUGUCGCCAGAUGUCAAGGUACAUGAGGAUCACCCAUGUAGAAGGGACGAGAA [salish99-Ex2-28] | – | – | 53.1 | 34.1
13 | AACUGUACAGGAUAUACAUGAGGAUCACCCAUGUGAGAAUUAAGUGGGAAACCACAAAGUAGAAGGGUACAGGA [Mat - Exclusion 3 - JL mod - D19] | – | – | 29.1 | 162
14 | AAAAAGGGAGGAUAUACAACACAGACAGAACAACAAACACAACAUGAGGAUCACCCAUGUAGAAGGCCCAAAAA [Default title] | – | – | 28.2 | 35.4
15 | AUCUUGUCAGGAUAUGACUACAUAAAAAAAAAAAAAUGUAGUCAGAAGGGACAUGAGGAUCACCCAUGUACUAA [hsl_exclusion4] | – | – | 41.9 | 62.4
16 | GAAAUACAUGAGGAUCACCCAUGUGAGGAUAUGCUAUGGAAAUAAAAAAUAAAACAUAGCAGAAGGUACAAAAG [Mat - Exclusion 1 - Eli mod - D43] | – | – | 21.8 | 54.6
17 | AAGGGACAUGAGGAUCACCCAUGUCAGGAUAUGCAAAUAACAAACAACAAACAACAAAGCAGAAGGGACAAAAA [Mat - Exclusion 1 - Eli mod - D53] | – | – | 27.9 | 24.8

Row | Sequence | apparent KD of MS2 coat protein (MS2 coat protein [1]) [nM] | apparent KD of MS2 coat protein (MS2 coat protein [2]) [nM] | apparent KD of MS2 coat protein (MS2 coat protein [3]) [nM] | apparent KD of MS2 coat protein (MS2 coat protein [4]) [nM]
18 | AGUAACCAAGGAUAUACAAAACCUGUGAUCGAAUGGAUUUUACAUGAGGAUCACCCAUGUAGAAGGUGGAAAGG [Xeedce] | – | – | 22.7 | 35
19 | AAAUUGUCAGGAUAUCCUAUAACUCUAAAAUAGAGGAGAUAGGAGAAGGGACAUGAGGAUCACCCAUGUAAAAC [May 86] | – | – | 43.7 | 61.7
20 | AAGAAAGGAGGAUAUACAUGAGGAUCACCCAUGUAAAAGAAAGAAAGGGAAAAGAAAAGUAGAAGGCCUAAGAA [Shoshenq IV] | – | – | 35.3 | 41.2
21 | AAAAAGGGAGGAUAUACAUGAGGAUCACCCAUGUAAAAAAAAAAAAAAGGGAGGGAAGGUAGAAGGCCCAAAAA [Excls3-II] | – | – | 39.6 | 52.5
22 | AAAAAGUAAGGAUAUAGCAAAGGUCACGAAAGUGACAAAGGCUAGAAGGUACAUGAGGAUCACCCAUGUCCAAG [Mat - Exclusion 4 - Eli mod - D100] | – | – | 30.8 | 16.6
23 | UAAAGACAUGAGGAUCACCCAUGUGAGGAUAUCGGAGGUGACGGAGCAUCGAGUUCGGCGAGAAGGCGCAGGAA [JR_Exc001_Sub409] | – | – | 67.2 | 53.4
24 | AAAAAGUUAGGAUAUACAUGAGGAUCACCCAUGUACAUAUAUGGAGAAAAAAACAGUAGUAGAAGGGACAAAAA [EX2 Malc#12] | – | – | 20.6 | 19.8
25 | AAAAAUCGAGGAUAUACAUGAGGAUCACCCAUGUCAAAAAAUGACUACACAAAAGAAAGUAGAAGGCGAUAAAG [Mat - Exclusion 3 - Mayanna mod - D129] | – | – | 25 | 36.6
26 | GAAAACAGAGGAUAUACAAAAUUAUGACGAAAGUCAUAAAAACAUGAGGAUCACCCAUGUAGAAGGCUGAAGAA [Meechl MS2 Ex2] | – | – | 28.2 | 21.6
27 | AGCUAGUCAGGAUAUACGAAAAUGAACGAAGCUGAGAAGGGACAUGAGGAUCACCCAUGUAGAAGGGACUAGCA [Diamond 34] | – | – | 47.7 | 137
28 | AAGAAGUAAGGAUAUCGAAGACUGUCGAAAAGACAGUCGAACGAGAAGGUACAUGAGGAUCACCCAUGUGAGAA [Opal 24] | – | – | 25.5 | 41
29 | AAAAAACAUGAGGAUCACCCAUGUGAGGAUAUGAAAAUACUAAGACAACAGUAAUCAAUCAGAAGGCACAACAA [JR_Exc--1_Sub1209] | – | – | 20.1 | 25.8
30 | AACAGGACAGGAUAUACAUGAGGAUCACCCAUGUAGGAAUUAAGCAGAGUACCACACAGUAGAAGGGUCAUGGA [Ruby 26] | – | – | 27.6 | 30.4
31 | AAAAAGUCAGGAUAUGUAGCAAAAAGUGAUCCAAAAAAGCUACAGAAGGGACAUGAGGAUCACCCAUGUAAAAA [Ex4: 931] | – | – | 86.5 | 98.2
32 | AAGAAGCUAGGAUAUACAUGAAAGAAAGAAAAGAAAAGAAAACAUGAGGAUCACCCAUGUAGAAGGAGCUAGAA [EteRNA is fun!] | – | – | 33.1 | 32.5
33 | AUAGUACAUGAGGAUCACCCAUGUCAGGAUAUUCGAAAUGAAAAAAAAAAAAAGUGAAGGAGAAGGGACUAUAA [EX1 Malc#12] | – | – | 21.5 | 20.1
34 | AGGAAACAUGAGGAUCACCCAUGUGAGGAUAUUGAAAAGAAAAGAAAAGAAAGAAGAACAAGAAGGCACAAGAA [Tiu] | – | – | 29.6 | 31.5
